Source: doi:10.1101/2020.06.12.149468v2 (biorxiv, 2026)

T1: mouse NR4A3 ligand-binding domain (Mus musculus, UniProt Q9QZB6)
T1 sequence (Q9QZB6 395-624): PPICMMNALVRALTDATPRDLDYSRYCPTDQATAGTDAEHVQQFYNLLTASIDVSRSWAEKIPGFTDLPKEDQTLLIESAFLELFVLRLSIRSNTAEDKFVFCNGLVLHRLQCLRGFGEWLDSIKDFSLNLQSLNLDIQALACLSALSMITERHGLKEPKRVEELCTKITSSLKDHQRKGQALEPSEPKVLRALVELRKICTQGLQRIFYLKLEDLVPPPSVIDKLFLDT

B1: DesC ([Clostridium] scindens ATCC 35704) (protein)
chain: MRQLFVTSIRDFEKNTMGTVDMMEAPMPEPKDEEIRIKVVYASICGSDTHILTGNLGEMESTTRSMLPMSFGHELSGVIDKVGSTAEKMGFKVGQKVVANYAKYCGCCENCREGKVNLCSNMGYRMNGFSEYAVYHMSQIFPIPDDADLKDYALVEPLTVALSSAEQAKISYGKSVAIMGAGGLGMMLVQLARLAGASTITVFDIVPEKLELALENGADYALNSAEEGVAERAIELAGGRYDCVLEGTGATAAAKLGLQLLARDGDAVYFAMYGKDPILPVNLQSDLYWDQKHIHGMIQGAWQFPKSIRMIPRMDFSKIIQKEHTLTNYKQAFEDLYSKKYAKIVIKMDE

Tests used:
[1] = biological target: T1, mouse NR4A3 ligand-binding domain; test: isothermal titration calorimetry
[2] = tested on: C[C@]12CCC(=O)C=C1CC[C@@H]1[C@@H]2[C@@H](O)C[C@@]2(C)[C@H]1CC[C@]2(O)C(=O)CO; test: purified protein; conditions: 50 mM phosphate pH 7.5, NADH
purified protein = substrate: C[C@]12CCC(=O)C=C1CC[C@@H]1[C@@H]2[C@@H](O)C[C@@]2(C)[C@H]1CC[C@]2(O)C(=O)CO; test: purified protein; conditions: 50 mM phosphate pH 7.5, NADH; remark: listed apart in the source

Molecule	Km [2] [µM]	kcat [2] [s⁻¹]	further results
CCCCC[C@H](O)/C=C/[C@H]1C=CC(=O)[C@@H]1C/C=C\CCCC(=O)O [PGA2]	–	–	Kd [1]: 66.6 ± 17.4 µM
DesC ([Clostridium] scindens ATCC 35704; S47T)	77.78 ± 1.78	0.011 ± 0.00067	–
DesC ([Clostridium] scindens ATCC 35704; H50A)	23.99 ± 0.26	0.208 ± 0.0148	–
C[C@]12CCC(=O)C=C1CC[C@@H]1[C@@H]2[C@@H](O)C[C@@]2(C)[C@H]1CC[C@]2(O)[C@@H](O)CO [20α-dihydrocortisol]	–	–	Kd [1]: 21.9 ± 2.6 µM
DesC ([Clostridium] scindens ATCC 35704; Y101R)	628.65 ± 29.96	0.0295 ± 0.005	–
DesC ([Clostridium] scindens ATCC 35704; Y124R)	61.01 ± 2.71	0.134 ± 0.00233	–
B1	–	–	Km (purified protein): 11.62 ± 1.02 µM; kcat (purified protein): 1.538 ± 0.125 s⁻¹
